Tested on: K4 kissing-loop RNA reporter
Assay: apparent KD of K4 kissing-loop reporter; higher = weaker reporter binding
Conditions: Eterna round: R107
Method: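 RNA-MaP round R107: designed RNA switches with theophylline, tryptophan, arginine or FMN aptamers are transcribed on-chip within common flanks. They are titrated with a labelled K4 kissing-loop RNA reporter in RNA-MaP buffer (100 mM Tris pH 7.5, 80 mM KCl, 4 mM MgCl2), without ligand or with the indicated ligand. Median apparent KD per design.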

[1] = input ligand: theophylline 20 uM
[2] = input ligand: tryptophan 2.4 mM
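Note: bound reporter read as fluorescence of individual clusters on recovered sequencing chips by microscopy, with normalized cluster intensities fitted with a binding model.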

Sequence | apparent KD of K4 kissing-loop reporter (input ligand: FMN 200 uM) [nM] | apparent KD of K4 kissing-loop reporter (input ligand: arginine 13.2 mM) [nM] | apparent KD of K4 kissing-loop reporter (input ligand: none) [nM] | apparent KD of K4 kissing-loop reporter [1] [nM] | apparent KD of K4 kissing-loop reporter [2] [nM]
GUAUCGCUAGGAGGAUAUUUCAAUUUGACUCUUUGAGUUUUUACGGAGUGAUGUUCCGUUUUACGGAAAGAAGGCCUAGUGAUAC [FMN B 15] | 121 | 138 | 162 | 159 | 161
AGUCCACUCUAAAGAGUGGACCUAAGGGAUACCAGUGAUGUUGGUCACCCUUGGCAGCCCUCUGUCAUCGAUAAAGAUGGCAGUA | 119 | 101 | 118 | 130 | 131
AAAACUAUCAGAAGGAGCGUGGAAUAUACAUCUAUAUUUAAUACGAGUGAUGUUCGUAAUUCACAGGUAGGUCGCUGAUCAAUAA [whbob_Ex_Arginine_B_2th153] | 228 | 320 | 278 | 359 | 206
CCUAUCUCAUACGAUACCAGUCAAUUAAAACGAGUGAUGUUCGAAAAUUUGCCAUAUAAUGACCCUUGGCAGCGUAUGGGAUAGG [Ex Theophylline B K4 7] | 187 | 196 | 194 | 197 | 164
GGAUAGGAUAGAGGAUAUGGCUUACGCAGAAAUAACUUAUUGUGUAAAUCCAUAGGGAGUGAUGUUCCAGAAGGCUGUCCUAUCG [MatMod 17 - Jieux - Exclusion - FMN B] | 415 | 212 | 251 | 244 | 201
AUCUAUGAGCGAGGAUAUGCAUAACGCGAGUGAUGUUCGCGAUGUGGGCGUAAUUGAUAAAAUGAAGCAGAAGGCGCACUCAUGA [Exclusion - FMW B / B] | 165 | 115 | 177 | 155 | 120
GCUAGGAUGGCAGGAUAUAGUUCGUGAGUGAUGUUCAAAGAACUAAGAGGGACACCUCAUUCUAAACUAGAAGGGCCAUCCUAGC | 246 | 275 | 276 | 421 | 337
AAUGAUGAUUGACACAUUUACUAAAAGGAAGGAGCGGCGAAGUAGCCAGGUAGGUCGCCUUAUAGCAGUGAUGUUGCUAUUUGUU [JR_Nu_ExcArginiA_Sub027] | 59 | 106 | 83.1 | 105 | 76.2
GGUUGAAGCACCCGGAGUGAUGUUCCGGAUACCAGCAAACCAACUUGCCCUUGGCAGCCGUAUAGCGUCCGGUGGGCCGAGCAUA [Beisadi] | 101 | 90.3 | 97 | 99.3 | 90
AUACGUUUCAGAGGAUAUCGGAGGAGAGUGAUGUUCUCCCAUAGCCCAGUGAUGUUGGAAGCUAUCCGAGAAGGCUGUGGGCGUA [Same State FMN B GF 15] | 145 | 174 | 186 | 179 | 179
GCCUGAGCACGAAGGAGCGCCGUGACAGGUUACUGCCUUGGGCAGUGAUGUUGCUCAAUCUGGCAGGUAGGUCGCGUGCUCAGGC | 165 | 161 | 162 | 131 | 167
CUGUAUCAUAUUGAUACCAGAGAAAGAACCAGUGAUGUUGGAAAAGACGAAUAAAUUAUACUCCCUUGGCAGCGGAAAUGAACAG [Totally accidental] | 73 | 85.6 | 75.8 | 105 | 59.9
AUGCUGUCGGCGUUAAAGUAGUAAUGUGAUACCAGAAAUGCUGUGUUCCCUUGGCAGCACAUUCUUACAGACAGUGAUGUUGUCU [theeternabot_exclusion_KL_Theo_A_8] | 414 | 315 | 391 | 390 | 336
GGAUCCACCAGUGAUGUUGGAGUAAUCUCCAAGGAUAUGACGAAAGUCAGAAGGUGGUAAAUAGACGUCAAAGACGUCGGAUCCA [FmnA 22 #SwitchBubble #K4Early] | 499 | 78.3 | 97.9 | 234 | 69
AAUUUAUUAACUGAUACCAGACUUAAUUAAUUGUAAAUUACUAGUGAUGUUAGUGAUUCUGUCCCUUGGCAGCAGUAUUUAUUAA [JR_ExcTheophyB_Sub011] | 98.3 | 120 | 113 | 139 | 92.5
AUUAUAAAGACGGCCGCCACUGAGAGUAGUGAUGUUACUCUUUUCCUUUAGAUAUUAUAUUUUAUCAGGACCGGGUUUUUUGAUU [JR_Nu_ExcTryptoB_Sub025] | 97.3 | 86.7 | 90.3 | 88.1 | 91.9
GUGAGGAUCCGAAGGAGCGUCCGCAAUCCAGUGAUGUUGGGUGUUGGUUAUAUUUAACGAGGACAGGUAGGUCGCGGAUUUUCAA [Same State Arginie B GF 22] | 202 | 126 | 172 | 193 | 159
UGUACCGAGUCAGGAUAUGGCGUCGAAAGACGAAUCCUAGUGAUGUUAGUGAUCUGCGAAAGCAGUCCAGAAGGGACUUGGUACU [FmnBS 26 U50] | 199 | 321 | 334 | 307 | 344
UGUAUGUGAUUUGAUACCAGACCAGCUGGUGGUACCUGAGUGAUGUUCGGGAUGGUUUGGGUCCCUUGGCAGCAAAUCGCAUACU [KL-SSTheoB20] | 251 | 144 | 164 | 148 | 170
GAUUUAGAGGCGGCCGCCACUAGUGAUGUUAGUGAUGUUUGAUACUGAAUAUAUCUGCGAGUAGAUAGGACCGGGCCAGAUGGAG [plmfmullin] | 225 | 154 | 195 | 179 | 182
UCCCUAAAGGGAGAUACCAGUAAAGAAGUGACGGAGUGGAGUGAUGUUCCAUAUUACUGAUACCCUUGGCAGCUCUUUUGAUUAC [theeternabot_sameState_KL_Theo_B_47] | 108 | 155 | 113 | 187 | 93.2
AUCGUUGUCUGAGGAUAUCGGUUAUCUGUAGUGAUGUUACAGUAUAUUCAUAUUAUACUUUCUAUUCGAGAAGGCAGACUACGUA [JR_Nu_ExcFMNB_Sub020] | 169 | 80.5 | 82.5 | 74.8 | 82.9

Sequence | apparent KD of K4 kissing-loop reporter (input ligand: FMN 200 uM) [nM] | apparent KD of K4 kissing-loop reporter (input ligand: arginine 13.2 mM) [nM] | apparent KD of K4 kissing-loop reporter (input ligand: none) [nM] | apparent KD of K4 kissing-loop reporter [1] [nM] | apparent KD of K4 kissing-loop reporter [2] [nM]
GGAUCUGCCAGUGAUGUUGGUUAAUAUAUCAAGGAUAUGACGAAAGUCAGAAGGUGAAAGACUGGACAAAGUCCAGUCGGAUCCA [KL-SSFMN-A20] | 237 | 312 | 352 | 460 | 270
GUUGUAUACUGAAGGAGCGAGUAGUGGAAACAUAAACUCAUUGCGAGUGAUGUUCGCGGUACUCAGGUAGGUCGCGGUAAUCGUA [Exclusion Arginine B Gf 11] | 820 | 328 | 800 | 485 | 403
AUUUGUUUAUGUGAUACCAGACUUUGCAGUGAUGUUGCUUUUAUUUUUGAAUUUUAAAUAGUCCCUUGGCAGCACUAUGUAUUUA [JR_SSTheophyB_Sub009] | 65.5 | 132 | 82.8 | 137 | 60.6
CCGGGCGGCCGAAGGAGCGGGCGGGCCCGAGUGAUGUUCGGGUGGACCGUGAGGUCCGGUGCCCAGGUAGGUCGCGGUUCCGCCC [#2 Same State - Arginine B Attempt #7 (HarryS)] | 156 | 123 | 157 | 115 | 134
GGUAGCAUGGCGGCCGCCACUUGCACUCGUCUUGCAUAUUGGCCUAUGAUAGUAGUGAUGUUACUAAGGACCGGGCCAUGCUACC | 266 | 173 | 194 | 178 | 255
GUAAUCUUGCUCGAGUGAUGUUCGAGCGAAGGAGCGCGAGAAAUCGCAGGUAGGUCGCGCUCGAAAUAUGAGCGAACAAUUAUUA [Arg A Ex t2b] | 222 | 197 | 220 | 219 | 230
UAUAUAUGAUGUGAUACCAGUGAAAAGCCAGUGAUGUUGGAGGAGCUGGUAUAUAAAUAAGACCCUUGGCAGCACAAUCACGUAU [#01 K4 Theophylline B Exclusion] | 227 | 202 | 212 | 221 | 214
CGCAGUGAUGUUGCUUAUAUUCUUGGUUAACGAGGACCGGUACGGCCGCCACUCGAUUUCUAUCUAUUCCAGUGUUAAUUUGAGU [JR_ExcTryptoA_Sub005] | 364 | 429 | 419 | 568 | 271
ACGCGCGCGAGUGAUGUUCGGAGCGGCUGGCAGGAUAUGUAGCAAUGCAGAAGGGUCGUGGCGGUGGGCGCGCAAGCGGCUGCCG [#2 Exclusion - FMN A Attempt #12 (HarryS)] | 187 | 318 | 396 | 399 | 371
GCCGUACGCAUGGAUACCAGCAGAACUGCCCUCCCAGUGAUGUUGGGAGGAUCUUUCCUAUGCCCUUGGCAGCCAUGCGUACGGC | 148 | 113 | 126 | 117 | 117
GUCUGCGUCUCGGCCGCCACUCACUAGUGAUGUUAGUAAGGAGCGACUAGCGCAGUCCUGAAGAUGAGGACCGGGAGACGCAGGA [Exclusion Tryptophan B GF5] | 141 | 110 | 119 | 91 | 358
UGACUUGCCUGAGGAUAUCUAGGAUAUGGAUAAAAUAAAAUAAUAAUGGAGUGAUGUUCCAGAAGGAGAGAAGGCAGGUAAGUCU [KL-XFMN-B16 #DoubleAptamer #SwitchBubble] | 190 | 116 | 96.1 | 170 | 84
UGUACCGAGUCAGGAUAUAGCGUCGAAAGACGAAAUGGAGUGAUGUUCCUUAAACUGCGAAAGCAGCUAGAAGGGACUUGGUACU [FmnBS 28 #SwitchBubble #StaticStem #DoubleMagnetSystem] | 153 | 234 | 246 | 250 | 239
GUGAAGGAGCUGCAGUGAUGUUGCAGAAACUAGGAUAUCAGGAAACUGAGAAGGAGUCAACUCCUUCACCUAAAUACUGCAGAAA [KL-SSFMN-A23] | 104 | 130 | 158 | 157 | 147
AGAGUUAUGCGAGGAUAUGCAGUUAGUACUCAAAGAGUACUAACGCAGAGUGAUGUUCUGUGAAAUGCAGAAGGUGCAUAACUCA [Omei KL FMN B SS B v5] | 157 | 316 | 330 | 316 | 289
UGACUGGACUGAAGGAGCGCUAAAACUCCUAGUGAUGUUGGGAAAACGAGACAAAGUCUCGAGCAGGUAGGUCGCAGUCUAGUCU [ArgBS 22 #SwitchBubble #StaticStem] | 302 | 196 | 253 | 278 | 258
CCAAUCAGUUACGAUACCAGUCUAAUAUAUUUGAUCAAAACCCUCGCCGAGUGAUGUUCGGACCCUUGGCAGCGUCUGGGACAGG [fcctmullin] | 502 | 417 | 446 | 474 | 394
AAUUCAGUGAUGUUGGAAGGCAGGAGGGAUACCAGCGGAAAUAAACGCCCUUGGCAGCCCAAAUAUCCCAAAUAGAUAAUAAUUU [Same State - Theophylline A (Freestyle 1)] | 581 | 381 | 610 | 607 | 563
AAGGUCACUACUACAGUGAUGUUGUGGGAGCAGGAUAUGCAGAAAUGCAGAAGGGCUCGCUCCAGGUGACCGAAUGAAACAUUCA [whbob_SS_FMNA__2th174] | 1500 | 882 | 1780 | 1140 | 1140
UAAAUUAUCUGAAGGAGCGUGAAAUAAUAUUAAACAUAACAACCCAGUGAUGUUGGGUUAUCACAGGUAGGUCGCAGAUGUAGAU [Same State Arginie B GF 24] | 95.6 | 113 | 98 | 118 | 85.5
GGAUCCACCAGUGAUGUUGGAGAAAACUUCAAGGAUAUGACGAAAGUCAGAAGGUGGUAGACUGGGCAAAGUCCGGUCGGAUCCA [FmnA10 U29+G66] | 543 | 228 | 296 | 402 | 274

— the supplement of paper PMC9170038
